Source: US20220396635A1 (UNIVERSIT T STUTTGART, published 2022)
Like-named read-outs stand apart in the source and are kept apart here.

B1: scDb/scFv-Fc (2-1)+1, trivalent bispecific anti-EGFRxanti-CD3 (bispecific antibody)
chain 1: QVQLVQSGAEVKKPGSSVKVSCKASGGTFSGYTMNWVRQAPGQGLEWMGLINPYKGVSTYNGKFKDRVTITADKSTSTAYMELSSLRSEDTAVYYCARSGYYGDSDWYFDVWGQGTLVTVSSGGGGSDIQLTQSPSFLSASVGDRVTITCRASQSIGTNIHWYQQKPGKAPKLLIKYASESISGVPSRFSGSGSGTEFTLTISSLQPEDFATYYCQQNNNWPTTFGAGTKLEIKRGGGGSGGGGSGGGGSEVQLVESGGGLVQPGGSLRLSCAASGFSLTNYGVHWVRQAPGKGLEWLGVIWSGGNTDYNTPFTSRFTISRDNSKNTLYLQMNSLRAEDTAVYYCARALTYYDYEFAYWGQGTTVTVSSGGGGSDIQMTQSPSSLSASVGDRVTITCRASQDIRNYLNWYQQKPGKAPKLLIYYTSRLHSGVPSRFSGSGSGTDFTFTISSLQPEDIATYYCQQGNTLPWTFGQGTKLEIKRAAADKTHTCPPCPAPPVAGPSVFLFPPKPKDTLMISRTPEVTCVVVDVSHEDPEVKFNWYVDGVEVHNAKTKPREEQYNSTYRVVSVLTVLHQDWLNGKEYKCKVSNKGLPSSIEKTISKAKGQPREPQVCTLPPSRDELTKNQVSLSCAVKGFYPSDIAVEWESNGQPENNYKTTPPVLDSDGSFFLVSKLTVDKSRWQQGNVFSCSVMHEALHNHYTQKSLSLSPGK
chain 2: EVQLVESGGGLVQPGGSLRLSCAASGFSLTNYGVHWVRQAPGKGLEWLGVIWSGGNTDYNTPFTSRFTISRDNSKNTLYLQMNSLRAEDTAVYYCARALTYYDYEFAYWGQGTTVTVSSGGGGSGGGGSGGGGSDIQLTQSPSFLSASVGDRVTITCRASQSIGTNIHWYQQKPGKAPKLLIKYASESISGVPSRFSGSGSGTEFTLTISSLQPEDFATYYCQQNNNWPTTFGAGTKLEIKRAAADKTHTCPPCPAPPVAGPSVFLFPPKPKDTLMISRTPEVTCVVVDVSHEDPEVKFNWYVDGVEVHNAKTKPREEQYNSTYRVVSVLTVLHQDWLNGKEYKCKVSNKGLPSSIEKTISKAKGQPREPQVYTLPPCRDELTKNQVSLWCLVKGFYPSDIAVEWESNGQPENNYKTTPPVLDSDGSFFLYSKLTVDKSRWQQGNVFSCSVMHEALHNHYTQKSLSLSPGK
notes: also called scDbhuU3xhu225-Fc(hole)Δab + scFvhu225-Fc(knob)Δab
B2: scDb/Fab-Fc (2-1)+1, trivalent bispecific anti-EGFRxanti-CD3 (bispecific antibody)
chain: B1 chain 1
heavy: EVQLVESGGGLVQPGGSLRLSCAASGFSLTNYGVHWVRQAPGKGLEWLGVIWSGGNTDYNTPFTSRFTISRDNSKNTLYLQMNSLRAEDTAVYYCARALTYYDYEFAYWGQGTTVTVSSASTKGPSVFPLAPSSKSTSGGTAALGCLVKDYFPEPVTVSWNSGALTSGVHTFPAVLQSSGLYSLSSVVTVPSSSLGTQTYICNVNHKPSNTKVDKKVEPKSCGTDKTHTCPPCPAPPVAGPSVFLFPPKPKDTLMISRTPEVTCVVVDVSHEDPEVKFNWYVDGVEVHNAKTKPREEQYNSTYRVVSVLTVLHQDWLNGKEYKCKVSNKGLPSSIEKTISKAKGQPREPQVYTLPPCRDELTKNQVSLWCLVKGFYPSDIAVEWESNGQPENNYKTTPPVLDSDGSFFLYSKLTVDKSRWQQGNVFSCSVMHEALHNHYTQKSLSLSPGK
light: DIQLTQSPSFLSASVGDRVTITCRASQSIGTNIHWYQQKPGKAPKLLIKYASESISGVPSRFSGSGSGTEFTLTISSLQPEDFATYYCQQNNNWPTTFGAGTKLEIKRTVAAPSVFIFPPSDEQLKSGTASVVCLLNNFYPREAKVQWKVDNALQSGNSQESVTEQDSKDSTYSLSSTLTLSKADYEKHKVYACEVTHQGLSSPVTKSFNRGEC
notes: also called scDbhuU3xhu225-Fc(hole)Δab + Fdhu225-Fc(knob)Δab + VLhu225-CLκ
B3: scDb/scFv-Fc (1-1)+2, trivalent bispecific anti-HER3×anti-CD3 (bispecific antibody)
chain 1: QVQLQQSGPGLVKPSQTLSLTCAISGDSVSSNRAAWNWIRQSPSRGLEWLGRTYYRSKWYNDYAQSLKSRITINPDTPKNQFSLQLNSVTPEDTAVYYCARDGQLGLDALDIWGQGTMVTVSSGGGGSQAGLTQPPAVSVAPGQTASITCGRDNIGSRSVHWYQQKPGQAPVLVVYDDSDRPAGIPERFSGSNYENTATLTISRVEAGDEADYYCQVWGITSDHVVFGGGTKLTVLGGGGSGGGGSGGGGSQVQLQQSGPGLVKPSQTLSLTCAISGDSVSSNRAAWNWIRQSPSRGLEWLGRTYYRSKWYNDYAQSLKSRITINPDTPKNQFSLQLNSVTPEDTAVYYCARDGQLGLDALDIWGQGTMVTVSSGGGGSQAGLTQPPAVSVAPGQTASITCGRDNIGSRSVHWYQQKPGQAPVLVVYDDSDRPAGIPERFSGSNYENTATLTISRVEAGDEADYYCQVWGITSDHVVFGGGTKLTVLAAADKTHTCPPCPAPPVAGPSVFLFPPKPKDTLMISRTPEVTCVVVDVSHEDPEVKFNWYVDGVEVHNAKTKPREEQYNSTYRVVSVLTVLHQDWLNGKEYKCKVSNKGLPSSIEKTISKAKGQPREPQVCTLPPSRDELTKNQVSLSCAVKGFYPSDIAVEWESNGQPENNYKTTPPVLDSDGSFFLVSKLTVDKSRWQQGNVFSCSVMHEALHNHYTQKSLSLSPGK
chain 2: DIQMTQSPSSLSASVGDRVTITCRASQDIRNYLNWYQQKPGKAPKLLIYYTSRLHSGVPSRFSGSGSGTDFTFTISSLQPEDIATYYCQQGNTLPWTFGQGTKLEIKRGGGGSGGGGSGGGGSQVQLVQSGAEVKKPGSSVKVSCKASGGTFSGYTMNWVRQAPGQGLEWMGLINPYKGVSTYNGKFKDRVTITADKSTSTAYMELSSLRSEDTAVYYCARSGYYGDSDWYFDVWGQGTLVTVSSAAADKTHTCPPCPAPPVAGPSVFLFPPKPKDTLMISRTPEVTCVVVDVSHEDPEVKFNWYVDGVEVHNAKTKPREEQYNSTYRVVSVLTVLHQDWLNGKEYKCKVSNKGLPSSIEKTISKAKGQPREPQVYTLPPCRDELTKNQVSLWCLVKGFYPSDIAVEWESNGQPENNYKTTPPVLDSDGSFFLYSKLTVDKSRWQQGNVFSCSVMHEALHNHYTQKSLSLSPGK
notes: The scDb is monospecific for HER3; the CD3 site sits in the scFv arm; also called scDb3-43x3-43-Fc(hole)Δab + scFvhuU3-Fc(knob)Δab
B4: scDb/Fab-Fc (1-1)+2, trivalent bispecific anti-HER3×anti-CD3 (bispecific antibody)
chain: B3 chain 1
heavy: QVQLVQSGAEVKKPGSSVKVSCKASGGTFSGYTMNWVRQAPGQGLEWMGLINPYKGVSTYNGKFKDRVTITADKSTSTAYMELSSLRSEDTAVYYCARSGYYGDSDWYFDVWGQGTLVTVSSASTKGPSVFPLAPSSKSTSGGTAALGCLVKDYFPEPVTVSWNSGALTSGVHTFPAVLQSSGLYSLSSVVTVPSSSLGTQTYICNVNHKPSNTKVDKKVEPKSCDKTHTCPPCPAPPVAGPSVFLFPPKPKDTLMISRTPEVTCVVVDVSHEDPEVKFNWYVDGVEVHNAKTKPREEQYNSTYRVVSVLTVLHQDWLNGKEYKCKVSNKGLPSSIEKTISKAKGQPREPQVYTLPPCRDELTKNQVSLWCLVKGFYPSDIAVEWESNGQPENNYKTTPPVLDSDGSFFLYSKLTVDKSRWQQGNVFSCSVMHEALHNHYTQKSLSLSPGK
light: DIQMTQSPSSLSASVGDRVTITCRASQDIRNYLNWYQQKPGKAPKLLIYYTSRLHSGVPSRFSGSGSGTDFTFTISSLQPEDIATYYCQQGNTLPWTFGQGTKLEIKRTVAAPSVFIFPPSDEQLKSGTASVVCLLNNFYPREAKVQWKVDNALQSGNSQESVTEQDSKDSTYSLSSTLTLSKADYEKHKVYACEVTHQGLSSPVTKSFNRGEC
notes: The scDb is monospecific for HER3; the CD3 site sits in the Fab arm; also called scDb3-43x3-43-Fc(hole)Δab + FdhuU3-Fc(knob)Δab + VLhuU3-CLK

What was measured:
EGFR [1] = biological target: T1, EGFR (UniProt P00533 25-1210, limits assumed); assay: flow cytometry, serial dilution on FaDu cells (EGFR-expressing), PE anti-human Fc detection
T1 construct: whole, on cells; the cell lines are human tumor lines
Method: (§1) Binding analysis of the trivalent, bispecific antibodies was performed by flow cytometry using tumor cell lines with different EGFR-expression levels (FIG. 20) (Table 12). Adherent cells were washed with PBS and shortly trypsinized at 37° C. Trypsin was quenched with FCS-containing medium and removed by centrifugation (500×g, 5 min.). Target cells (FaDu, LIM1215, SKBR-3, T-47-D, MCF-7 and Jurkat cells) at 1×10⁵ cells/well were incubated with a serial dilution of trivalent, bispecific antibodies for 1 h at 4° C. After removing excess of recombinant protein by washing with PBA (PBS, 2% FBS, and 0.02% sodium azide), bound protein was detected using PE-conjugated anti-human Fc mAb (Jackson ImmunoResearch Laboratories Inc). Fluorescence was measured using MACSquant VYB (Miltenyi Biotec) and data were analyzed using FlowJo (Tree Star). Relative median fluorescence intensities (MFI) were calculated as followed: relative MFI=((MFIₛₐₘₚₗₑ-(MFIdetection-MFIcells))/MFIcells).

CD3 [2] = biological target: T2, CD3 (UniProt P07766 23-207); assay: flow cytometry, serial dilution on Jurkat cells (CD3-expressing), PE anti-human Fc detection
T2 construct: whole, on cells; on cells it stands in the TCR/CD3 complex; also called CD3 on Jurkat cells
Method: as §1

EGFR [3] = biological target: T1, EGFR; assay: flow cytometry, serial dilution on SKBR-3 cells (EGFR-expressing), PE anti-human Fc detection
Method: as §1

EGFR [4] = biological target: T1, EGFR; assay: flow cytometry, serial dilution on T-47-D cells (EGFR-expressing), PE anti-human Fc detection
Method: as §1

EGFR [5] = biological target: T1, EGFR; assay: flow cytometry, serial dilution on MCF-7 cells (EGFR-expressing), PE anti-human Fc detection
Method: as §1

EGFR [6] = biological target: T1, EGFR; assay: cell-based or functional assay
EGFR [7] = biological target: T1, EGFR; assay: flow cytometry, serial dilution on LIM1215 cells (EGFR-expressing), PE anti-human Fc detection
Method: as §1

HER3 [8] = biological target: T3, HER3 (UniProt P21860 20-1342, limits assumed); assay: flow cytometry, serial dilution on MCF-7 cells (HER3-expressing), PE anti-human Fc detection
T3 construct: whole, on cells; the cell lines are human tumor lines
Method: (§2) Binding of trivalent, bispecific fusion proteins to HER3-expressing (LIM1215, MCF-7) and CD3-expressing (Jurkat) cell lines was analyzed by flow cytometry. 2×10⁵ cells/well were incubated with a serial dilution of trivalent, bispecific antibodies for 1 h at 4° C. followed by detection using a PE-conjugated anti-human Fc antibody (Jackson ImmunoResearch Laboratories Inc). […] Concerning binding to the CD3-expressing cell line Jurkat, the trivalent, bispecific antibodies in the (1-2)+1 and in the (2−1)+1 orientation bound with EC₅₀ values in the low nanomolar range.

HER3 [9] = biological target: T3, HER3; assay: cell-based or functional assay
CD3 [10] = biological target: T2, CD3; assay: flow cytometry, serial dilution on Jurkat cells (CD3-expressing), PE anti-human Fc detection; remark: listed apart in the source
Method: as §2

HER3 [11] = biological target: T3, HER3; assay: flow cytometry, serial dilution on LIM1215 cells (HER3-expressing), PE anti-human Fc detection
Method: as §2

Binder | EC50 (EGFR [1]) | EC50 (CD3 [2]) | EC50 (EGFR [3]) | EC50 (EGFR [4]) | EC50 (EGFR [5]) | EC50 of PBMC cytotoxicity on FaDu cells, E:T 5:1 (EGFR [6]) | EC50 of PBMC cytotoxicity on SKBR-3 cells, E:T 5:1 (EGFR [6]) | EC50 (EGFR [7]) | EC50 (HER3 [8]) | EC50 of proliferation of CD4+ T-cells, MCF-7 co-culture (HER3 [9]) | EC50 of proliferation of CD8+ T-cells, MCF-7 co-culture (HER3 [9]) | EC50 (CD3 [10]) | EC50 (HER3 [11])
B1 | 700 pM | 16300 pM | 100 pM | 100 pM | 100 pM | 27 pM | 277 pM | 200 pM |  |  |  |  | 
B2 | 200 pM | 1400 pM | 100 pM | 30 pM | 30 pM | 56 pM | 209 pM | 200 pM |  |  |  |  | 
B3 |  |  |  |  |  |  |  |  | 400 pM | 393 pM | 191 pM | 700 pM | 882 pM
B4 |  |  |  |  |  |  |  |  | 700 pM |  |  | 8700 pM | 249 pM
